The source of these data is patent US20110117110A1 (FACET BIOTECH, published 2011).

Test [1] deals with T1, EGFR on A431 cells (human, UniProt P00533 25-1210).
T1 construct: whole, on cells; also called epidermal growth factor receptor; ErbB-1
As to the kind of experiment: FACS competition on A431 cells against biotinylated cetuximab; panel FACS Competition (2).
Description: (§1) A431 cells were grown to 2×10⁵ cells per well of V-bottom 96-well plates. Cells were washed with FACS staining buffer (FSB). […] The plates were then incubated on ice for 1 hour, and then washed twice with FSB. […] Cells were washed two times with FSB, and stained cells were resuspended with 200 μL of fixing buffer (1% paraformaldehyde). Samples were read using a flow cytometer.

Test [2] deals with T1, EGFR on A431 cells. In words: FACS competition on A431 cells: unlabelled antibody against biotinylated cetuximab (0.5 µg/mL), streptavidin-RPE detection; column Average of Trials 1-3, column SD prints 0.4.
Description: as §1
Test [3] concerns the target T1, EGFR on A431 cells. As to the kind of experiment: FACS competition on A431 cells: unlabelled antibody against biotinylated cetuximab (0.5 µg/mL), streptavidin-RPE detection; Trial 3.
Description: as §1
Test [4] deals with T1, EGFR on A431 cells. As to the kind of experiment: FACS competition on A431 cells: unlabelled antibody against biotinylated cetuximab (0.5 µg/mL), streptavidin-RPE detection; Trial 1.
Description: as §1
For test [5], the target named is T1, EGFR on A431 cells. In words: FACS competition on A431 cells: unlabelled antibody against biotinylated cetuximab (0.5 µg/mL), streptavidin-RPE detection; Trial 2.
Description: as §1
Test [6] concerns the target T1, EGFR on A431 cells. As to the kind of experiment: FACS competition on A431 cells against biotinylated cetuximab; panel FACS Competition (3).
Description: as §1

B1: hu225 (antibody, V domains shown)
VH: EVQLVESGGGLVQPGGSLRLSCAASGFSLTNYGVHWVRQAPGKGLEWLGVIWSGGNTDYNTPFTSRLTINKDNSKNTVYLQMNSLRAEDTAVYYCARALTYYDYEFAYWGQGTLVTVSS
VL: DILLTQSPGTLSLSPGERATLSCRASQSIGTNIHWYQQKPGQAPRLLIKYASESISGIPDRFSGSGSGTDFTLTISRLEPEDFAVYYCQQNNNWPTTFGQGTKLEIKR
notes: also called humanized version of MAb225; humanized cetuximab
In general, IC50 refers to the concentration at which inhibition is half-maximal. Low readings indicate inhibition by little substance, high ones a need for much substance. Consider B1, for which the “IC50 (read off the curve)” value is roughly 1 µg/mL with EGFR on A431 cells [1] and roughly 3 µg/mL with EGFR on A431 cells [6]. Further, the IC50 stood at 1.79 µg/mL with EGFR on A431 cells [2], 2.62 µg/mL with EGFR on A431 cells [3], 1.71 µg/mL in the test with EGFR on A431 cells [4] and 1.06 µg/mL with EGFR on A431 cells [5].
